Test results published in article PMC8546591, “Neodymium as Metal Cofactor for Biological Methanol Oxidation: Structure and Kinetics of an XoxF1-Type Methanol Dehydrogenase” (mBio, 2021).

What was measured:
[1] = test system: C=O; assay: purified protein; conditions: pH 7, 45°C, 1 mM PES, 100 μM DCPIP, 200 nM enzyme, no ammonium, first 2 min, formaldehyde from dissolved paraformaldehyde
[2] = test system: CO; assay: purified protein; conditions: pH 7, 45°C, 1 mM PES, 100 μM DCPIP, 200 nM enzyme, no ammonium, first 2 min

Substance: Nd-XoxF1 (XoxF1-type methanol dehydrogenase) (Methylacidimicrobium sp. AP8)
- Km [1]: 1.6 ± 0.8 µM
- Km [2]: 1.4 ± 0.6 µM
